In article PMC5073337:

Experiments:
[1] = target: SUMO2, full-length mouse, adenovirally overexpressed (mouse) (UniProt P61957); assay: proximity ligation; fixed NRVCM; primary antibodies against SUMO2/3 (Abcam, mouse) and CnA (Upstate, rabbit); cells infected with Ad LacZ, Ad S2 or Ad S2ΔGG with or without Ad ΔCnA; read-out: percentage of PLA-positive nuclei
[2] = target: SUMO2ΔGG, diglycine-deficient mouse SUMO2 mutant, adenovirally overexpressed (mouse) (UniProt P61957); assay: as above

| Substance | increase of PLA signal on overexpression [1] [%] | increase of PLA signal on overexpression [2] [%] | PLA signal (percent) [1] [%] | PLA signal (percent) [2] [%] |
| --- | --- | --- | --- | --- |
| calcineurin A (endogenous, rat) (from UniProt P63329 1-521) (natural protein) | 14 | 17 |  |  |
| constitutively active calcineurin A (from UniProt P63328 1-521) (enzyme) |  |  | 64 | 54 |
